Patent US20180364253A1 (published 2018)
Bridge positions count the residues as written; N and C are the ends. Square brackets hold non-standard residues; d marks the D form. Primed or numbered codes have the meaning given here. Ends that are not written are not given here. * marks the point of attachment. Biotin = O=C1N[C@H]2[C@H](CS[C@H]2CCCCC(=O)*)N1; Lys(N3) = [N-]=[N+]=NCCCC[C@H](N)C(=O)O; PEG3′ = PEGylated amino acid linker; Biotin′ = not defined here; Pra = C#CC[C@H](N)C(=O)O

Legend:
[1] = biological target: T1, full-length His-tagged IL-17F protein (ab167911, Abcam) (human, UniProt Q96PD4 31-163); assay: fluorescence polarization in solution: IL-17F titrated against the 5-FITC-tagged macrocycle
T1 construct: Bought protein, called 'full-length'; also called human IL-17F protein; recombinant human IL-17F protein; not shown: His tag of the bought protein
T1 chain: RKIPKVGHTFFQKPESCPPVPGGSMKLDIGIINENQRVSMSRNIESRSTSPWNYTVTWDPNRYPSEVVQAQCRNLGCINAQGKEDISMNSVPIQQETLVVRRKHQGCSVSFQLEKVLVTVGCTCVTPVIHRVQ

[2] = biological target: T2, His6-PEG3-SQFEKFPSPPVPGGS (not fully specified (N-terminus); printed as His6-PEG3-SQFEKFPSPPVPGGS); assay: point ELISA: ligand on NeutrAvidin plate, His-tagged epitope peptide, anti-His-AP detection
T2 construct: Chemically synthesized
T2 peptide: SQFEKFPSPPVPGGS
Method: (§1) Assay to determine orientation of macrocycle binding to IL-17F Epitope1. […] The plate was aspirated and then washed with TBS (5×) and Wash Buffer (0.05% (v/v) Tween-20 in PBS, 1×). Chemically synthesized His-tagged IL-17F epitopes were prepared at 2 μM in Wash Buffer and incubated in the designated microwells for 90 min at room temperature. Wash Buffer without epitope was added as a control. Microwells were aspirated and subsequently washed with Wash Buffer (10×). To detect the bound IL-17F epitopes, Alkaline Phosphatase (AP)-conjugated Anti-6X His tag® antibody [HIS-1] (ab49746, Abcam) was prepared at 1:10,000 dilution and added to the microwells for 1 h at room temperature. […] AttoPhos® AP Fluorescent Substrate System (S1000, Promega) was employed to develop the microwells. […] Data are shown after subtraction of the no-epitope background.

[3] = biological target: T1, full-length His-tagged IL-17F protein …; assay: point ELISA: ligand on NeutrAvidin plate, His-tagged IL-17F against His-tagged IL-17A as reference
Method: Point ELISA (IL-17F vs. IL-17A selectivity assay). […] The plate was aspirated and then washed with TBS (5×) and Wash Buffer (0.05% (v/v) Tween-20 in PBS, 1×). Full-length His-tagged IL-17F (ab167911, Abcam) and IL-17A (ab166882, Abcam) proteins were prepared at 100 and 10 nM in Wash Buffer and incubated in the designated microwells for 90 min at room temperature. Microwells were aspirated and subsequently washed with Wash Buffer (10×). To detect the bound IL-17F and IL-17A proteins, Alkaline Phosphatase (AP)-conjugated Anti-6X His tag® antibody [HIS-1] (ab49746, Abcam) was prepared at 1:10,000 dilution and added to the microwells for 1 h at room temperature. […] AttoPhos® AP Fluorescent Substrate System (S1000, Promega) was employed to develop the microwells.
(§2) For these assays, the full-length His-tagged IL-17F and IL-17A proteins were captured using the macrocyclic peptide ligands immobilized on a NeutrAvidin-coated plate.

[4] = biological target: T3, His6-PEG3-FFQKPESSPVSPGPG (not fully specified (N-terminus); printed as His6-PEG3-FFQKPESSPVSPGPG); assay: point ELISA: ligand on NeutrAvidin plate, 2 µM His-tagged epitope peptide, anti-His-AP detection
T3 construct: Chemically synthesized
T3 peptide: FFQKPESSPVSPGPG
Method: as §1

[5] = biological target: T1, full-length His-tagged IL-17F protein …; assay: surface-immobilized macrocycle contacted with IL-17F, IL-17A or no protein
[6] = biological target: T4, His6-PEG3-FFQKPESSPPVPGGS (human, not fully specified (N-terminus); printed as His6-PEG3-FFQKPESSPPVPGGS); assay: point ELISA with His-tagged epitope peptides scrambled at the N- or C-terminus
T4 construct: Chemically synthesized
T4 peptide: FFQKPESSPPVPGGS

[7] = biological target: T1, full-length His-tagged IL-17F protein …; assay: sandwich ELISA: biotinylated ligand on NeutrAvidin plate, His-tagged IL-17F titrated, anti-His-AP detection
[8] = biological target: T4, His6-PEG3-FFQKPESSPPVPGGS; assay: point ELISA: ligand on NeutrAvidin plate, 2 µM His-tagged epitope peptide, anti-His-AP detection
Method: as §1

[9] = biological target: T1, full-length His-tagged IL-17F protein …; assay: binding to His-tagged IL-17F human recombinant protein; method not named there (ELISA implied)
[10] = biological target: T1, full-length His-tagged IL-17F protein …; assay: point ELISA against recombinant human IL-17F and IL-17A
[11] = biological target: T1, full-length His-tagged IL-17F protein …; assay: comparison of affinities for His-tagged IL-17F
[12] = biological target: T1, full-length His-tagged IL-17F protein …; assay: comparison of affinities for His-tagged IL-17F; reference the other biligands (PEG1, PEG2, PEG4, PEG5)
[13] = biological target: T1, full-length His-tagged IL-17F protein …; assay: fluorescence polarization in solution
[14] = biological target: T5, Plasmodium falciparum Histidine Rich Protein-2 (Pf.HRP-2) (Plasmodium falciparum); assay: comparison of EC50 values
T5 chain: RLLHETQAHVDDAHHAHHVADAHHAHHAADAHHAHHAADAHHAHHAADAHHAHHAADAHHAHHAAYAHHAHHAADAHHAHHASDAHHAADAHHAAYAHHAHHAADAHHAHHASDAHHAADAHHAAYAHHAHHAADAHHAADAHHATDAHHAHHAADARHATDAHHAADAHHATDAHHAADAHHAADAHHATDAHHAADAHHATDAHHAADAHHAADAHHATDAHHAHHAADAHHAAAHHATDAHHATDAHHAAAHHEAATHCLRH

[15] = biological target: T5, Plasmodium falciparum Histidine Rich …; assay: method and form of the target not stated
[16] = biological target: T1, full-length His-tagged IL-17F protein …; assay: point ELISA: ligand on NeutrAvidin plate, 100 nM His-tagged IL-17F against His-tagged IL-17A as reference
Method: Point ELISA (IL-17F vs. IL-17A selectivity assay). […] The plate was aspirated and then washed with TBS (5×) and Wash Buffer (0.05% (v/v) Tween-20 in PBS, 1×). Full-length His-tagged IL-17F (ab167911, Abcam) and IL-17A (ab166882, Abcam) proteins were prepared at 100 nM and 10 nM in Wash Buffer and incubated in the designated microwells for 90 min at room temperature. Microwells were aspirated and subsequently washed with Wash Buffer (10×). To detect the bound IL-17F and IL-17A proteins, Alkaline Phosphatase (AP)-conjugated Anti-6X His tag® antibody [HIS-1] (ab49746, Abcam) was prepared at 1:10,000 dilution and added to the microwells for 1 h at room temperature. […] AttoPhos® AP Fluorescent Substrate System (S1000, Promega) was employed to develop the microwells.
as §2

[17] = biological target: T1, full-length His-tagged IL-17F protein …; assay: method not named there (same number as the ELISA EC50)

B1: fluorescein 5-isothiocyanate (5-FITC)-tagged LF1 (peptide)
peptide: [Pra]RRATS[Lys(N3)]
modifications: triazole N-C; numbers in words are those of the source; also: 5-FITC tag, position not given here
notes: Form of LF1 used in fluorescence polarization; also called LF1 (5-FITC-tagged)
Which Kd [1] does the source give for B1 here?
Its Kd is 50 nM.

B2: Cy(RRATS)(SEQ ID NO:9)-PEG3-biotin (peptide)
peptide: [Pra]RRATS[Lys(N3)]-{PEG3′-Biotin′}
modifications: triazole N-C
notes: also called LF1; PEG3-biotin-modified Cy(RRATS)
Which results are given for B2?
binding result [2]: no binding (tested: 2 µM epitope); selectivity for IL-17F (against IL-17A) [3]: 2 ratio; binding result [4]: binds; selectivity for IL-17F (against IL-17A) [5]: 10 ratio; binding result [6]: binds; EC50 [7]: 66 nM

B3: Cy(RRAQS)(SEQ ID NO:10)-PEG3-biotin (peptide)
peptide: [Pra]RRAQS[Lys(N3)]-{PEG3′-Biotin′}
modifications: triazole N-C
notes: also called PEG3-biotin-modified Cy(RRAQS)
Which results are given for B3?
binding result [2]: no binding (tested: 2 µM epitope); selectivity for IL-17F (against IL-17A) [3]: 2 ratio; binding result [8]: binds; binding result [4]: binds; EC50 [7]: 52 nM

B4: Biotin-PEG3-Cy(RSYNK)(SEQ ID NO:28)-PEG3-Cy(RRATS) (SEQ ID NO:9) (peptide)
peptide 1: {Biotin-PEG3′}-[Pra]RSYNK
peptide 2: [Pra]RRATS[Lys(N3)]
modifications: not fully specified (C-terminus); also: triazole to a chain's N/C-terminus, triazole to a chain's N/C-terminus
notes: One covalent molecule: the two macrocycles are joined by a single PEGylated amino acid (PEG3); also called Bi-LF; Cy(RSYNK)-PEG3-Cy(RRATS)
Which Kd [9] does the source give for B4 here?
Its Kd is 0.246 nM.

What about the “selectivity for IL-17F (against IL-17A)” value [10] of the same binder?
The value was 4 ratio.

And the “fold improvement in affinity relative to the individual PCC macrocyclic ligands” value [11]?
The value was greater than 100 fold.

What about the “times stronger than the other biligands” value [12] of the same binder?
The value was no less than 16 fold.

And the Kd [13]?
Its Kd is 0.252 nM.

B5: cy(YKYYR)(SEQ ID NO:29)-linker-cy(GWNVDL) (SEQ ID NO:30) (peptide)
peptide 1: YKYYR
peptide 2: GWNVDL
modifications: not fully specified
notes: One covalent molecule; also called the resultant biligand
B5 was tested. Which “fold improvement over the better of the two ligand components” value [14] did it give?
The value was 100 fold.

And the EC50 [15]?
The EC50 was 0.54 nM.

B6: Biotin-PEG3-Cy(KKGWP) (SEQ ID NO:23) (peptide)
peptide: KKGWP
modifications: not fully specified; cyclised by a triazole between flanking N-terminal Pra (L-propargylglycine) and C-terminal Az4 (L-azidolysine); N-terminal Biotin-PEG3 label
notes: also called PEG3-biotin-modified Cy(KKGWP)
Which “selectivity for IL-17F (against IL-17A)” value [16] does the source give for B6 here?
Its value is 4 ratio.

What about the EC50 [7] of the same binder?
The EC50 was 24 nM.

B7: linked biligand of two Cy(YKYYR) (SEQ ID NO:29) PCCs with about a 1.5 nm long linker (peptide)
peptide: YKYYR
modifications: also: cyclic peptide (Cy), closure not given here, dimer: two macrocycles joined by a linker of about 1.5 nm
notes: also called the resultant linked biligand
For B7, which EC50 [15] is on record?
The EC50 was 20.8 nM.

B8: Cy(YKYYR) (SEQ ID NO:29) (peptide)
peptide: YKYYR
modifications: also: cyclic, mode of cyclisation not given here
notes: also called cyclic YKYYR
For B8, which EC50 [15] is on record?
The EC50 was 220 nM.

B9: Biotin-PEG3-Cy(RSYNK) (SEQ ID NO:28) (peptide)
peptide: RSYNK
modifications: not fully specified; cyclised by a triazole between flanking N-terminal Pra (L-propargylglycine) and C-terminal Az4 (L-azidolysine); Biotin-PEG3 label
notes: also called LF2; PEG3-biotin-modified Cy(RSYNK)
What does the source list for B9?
Kd [17]: 15 nM; selectivity for IL-17F (against IL-17A) [16]: 4 ratio; EC50 [7]: 15 nM

B10: cyclic PCC with variable sequence GWNVDL (SEQ ID NO:30) (peptide)
peptide: GWNVDL
modifications: also: cyclic peptide, closure not given here
notes: also called cy(GWNVDL)
B10 was tested. Which EC50 [15] did it give?
The EC50 was 50 nM.

B11: fluorescein 5-isothiocyanate (5-FITC)-tagged LF2 (peptide)
peptide: [Pra]RSYNK[Lys(N3)]
modifications: triazole N-C; numbers in words are those of the source; also: 5-FITC tag, position not given here
notes: Form of LF2 used in fluorescence polarization; also called LF2 (5-FITC-tagged)
B11 was tested. Which Kd [1] did it give?
The Kd was 28 nM.
